Source: patent US20140094592A1

B1: d-lys6-GnRH-GMBS-plant-derived mature PAP (protein)
chain: VNTIIYNVGSTTISKYATFLNDLRNEAKDPSLKCYGIPMLPNTNTNPKYVLVELQGSNKKTITLMLRRNNLYVMGYSDPFETNKCRYHIFNDISGTERQDVETTLCPNANSRVSKNINFDSRYPTLESKAGVKSRSQVQLGIQILDSNIGKISGVMSFTEKTEAEFLLVAIQMVSEAARFKYIENQVKTNFNRAFNPNPKVLNLQETWGKISTAIHDAKNGVLPKPLELVDASGAKWIVLRVDEIKPDVALLNYVGGSCQTT
peptide: EHWSYKLRP
modifications: Hp-Glu at position 1 (blocked N-terminus); D-Lys at position 6, carrying the GMBS linker; C-terminal ethyl-amide (Et-NH2) replacing Gly 10; bound through the GMBS linker to d-lys6-GnRH; site of attachment not stated

What was measured:
[1] = biological target: gonadotropin releasing hormone receptor; assay: competition with I125-d-Lys6-GnRH on pituitary membranes; competitor at 29.09 nM
[2] = biological target: gonadotropin releasing hormone receptor; assay: competition with I125-d-Lys6-GnRH on pituitary membranes; competitor at 72.73 nM
[3] = biological target: gonadotropin releasing hormone receptor; assay: competition with I125-d-Lys6-GnRH on pituitary membranes; competitor at 181.82 nM
[4] = biological target: gonadotropin releasing hormone receptor; assay: competition with I125-d-Lys6-GnRH on pituitary membranes; competitor at 454.55 nM
[5] = biological target: gonadotropin releasing hormone receptor; assay: competition with I125-d-Lys6-GnRH on pituitary membranes; competitor at 1136.36 nM
[6] = biological target: gonadotropin releasing hormone receptor; assay: competition with I125-d-Lys6-GnRH on pituitary membranes; competitor at 28.24 nM
[7] = biological target: gonadotropin releasing hormone receptor; assay: competition with I125-d-Lys6-GnRH on pituitary membranes; competitor at 70.59 nM
[8] = biological target: gonadotropin releasing hormone receptor; assay: competition with I125-d-Lys6-GnRH on pituitary membranes; competitor at 176.47 nM
[9] = biological target: gonadotropin releasing hormone receptor; assay: competition with I125-d-Lys6-GnRH on pituitary membranes; competitor at 441.18 nM
[10] = biological target: gonadotropin releasing hormone receptor; assay: competition with I125-d-Lys6-GnRH on pituitary membranes; competitor at 1102.94 nM
[11] = biological target: gonadotropin releasing hormone receptor; assay: competitive radio-immuno receptor binding assay, pituitary membranes, displacement of I125-d-Lys6-GnRH
[12] = biological target: gonadotropin releasing hormone receptor; assay: competition with I125-d-Lys6-GnRH on pituitary membranes; competitor at 32 nM
[13] = biological target: gonadotropin releasing hormone receptor; assay: competition with I125-d-Lys6-GnRH on pituitary membranes; competitor at 80 nM
[14] = biological target: gonadotropin releasing hormone receptor; assay: competition with I125-d-Lys6-GnRH on pituitary membranes; competitor at 200 nM
[15] = biological target: gonadotropin releasing hormone receptor; assay: competition with I125-d-Lys6-GnRH on pituitary membranes; competitor at 500 nM
[16] = biological target: gonadotropin releasing hormone receptor; assay: competition with I125-d-Lys6-GnRH on pituitary membranes; competitor at 1250 nM

Row | Molecule | read-out of the competitive receptor binding assay (unit not given) [1] | read-out of the competitive receptor binding assay (unit not given) [2] | read-out of the competitive receptor binding assay (unit not given) [3] | read-out of the competitive receptor binding assay (unit not given) [4] | read-out of the competitive receptor binding assay (unit not given) [5] | read-out of the competitive receptor binding assay (unit not given) [6] | read-out of the competitive receptor binding assay (unit not given) [7] | read-out of the competitive receptor binding assay (unit not given) [8] | read-out of the competitive receptor binding assay (unit not given) [9] | read-out of the competitive receptor binding assay (unit not given) [10] | IC50 [11] | read-out of the competitive receptor binding assay (unit not given) [12] | read-out of the competitive receptor binding assay (unit not given) [13] | read-out of the competitive receptor binding assay (unit not given) [14] | read-out of the competitive receptor binding assay (unit not given) [15] | read-out of the competitive receptor binding assay (unit not given) [16]
1 | non-conjugated recombinant PAP (not bound to d-lys6-GnRH-GMBS) (from UniProt P10297 23-285) | 91.5 | 111 | 96.4 | 98.7 | 74.8 | – | – | – | – | – | – | – | – | – | – | –
2 | d-lys6-GnRH-GMBS-rPAP (from UniProt P10297 23-285) | – | – | – | – | – | 75 | 78.2 | 49.4 | 34 | 9.24 | 70 to 200 nM | – | – | – | – | –
3 | B1 | – | – | – | – | – | – | – | – | – | – | 70 to 200 nM | 65.5 | 37.5 | 10.1 | 3.38 | 0
